Test results: the supplement of paper PMC7877785
± gives the uncertainty stated by the source.

Assay: self-splicing fitness, log relative to wild type (ln ratio); higher = more splicing; Tetrahymena group I intron in knt gene, E. coli kanamycin selection, DiMSum; sequences stand for … in CUCUCU…GGAGGGAAAAGUUAUCAGGCAUGCACCUGGUAGCUAGUCUUUAAACCAAUAGAUUGCAUCGGUUUAAAAGGCAAGACCGUCAAAUUGCGGGAAAGGGGUCAACAGCCGUUCAGUACCAAGUCUCAGGGGAAACUUUGAGAUGGCCUUGCAAAGGGUAUGGUAAUAAGCUGACGGACAUGGUCCUAACCACGCAGCCAAGUCCUAAGUCAACAGAUCUUCUGUUGAUAUGGAUGCAGUUCACAGACUAAAUGUCGGUCGGGGAAGAUGUAUUCUUCUCAUAAGAUAUAGUCGGACCUCUCCUUAAUGGGAGCUAGCGGAUGAAGUGAUGCAACACUGGAGCCGCUGGGAACUAAUUUGUAUGCGAAAGUAUAUUGAUUAGUUUUGGAGUACUCGUGGUCG
How it was run: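 Library with all eight P1ex-region intron nucleotides randomised, intron inside the knt kanamycin-resistance gene on pET-22b(+), in E. coli BL21(DE3). Cells grew overnight at 37°C or 30°C on LB agar with or without 25 μg/mL kanamycin (plus 100 μg/mL carbenicillin, 50 μM IPTG, 0.2% rhamnose), in six replicate transformations. Pooled colonies were amplicon-sequenced on Illumina HiSeq 2500. DiMSum fitness is the error-weighted combination of wild-type-normalised replicate fold changes, kanamycin versus none.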

Sequence | self-splicing fitness (ln) (30 °C) | self-splicing fitness (ln) (37 °C)
CGAGAGCAAUAUUACGAUCG | -2.87 ± 0.43 | –
CGAGAGCAAUAUUACGCAUC | -3.04 ± 0.35 | -2.33 ± 0.35
CGAGAGCAAUAUUACGCAUG | -2.98 ± 0.12 | -2.02 ± 0.12
CGAGAGCAAUAUUACGCGUA | -3.31 ± 0.19 | -2.67 ± 0.29
CGAGAGCAAUAUUACGCUUG | -3.51 ± 0.33 | -3.14 ± 0.34
CGAGAGCAAUAUUACGGCUU | – | -3.05 ± 0.4
CGAGAGCAAUAUUACGGUAC | -3.63 ± 0.47 | -0.529 ± 0.28
CGAGAGCAAUAUUACGGUUG | -2.88 ± 0.14 | -1.21 ± 0.14
CGAGAGCAAUAUUACGUAAU | – | -2.01 ± 0.3
CGAGAGCAAUAUUACGUACC | -3.27 ± 0.38 | -1.7 ± 0.41
CGAGAGCAAUAUUACGUGCG | -3.43 ± 0.29 | -1.8 ± 0.2
CGAGAGCAAUAUUACGUGGC | -4.31 ± 0.46 | -2.55 ± 0.26
CGAGAGCAAUAUUACGUGUU | -3.83 ± 0.25 | -3.71 ± 0.46
CGAUAGCAAUAUUACGAACG | -0.892 ± 0.11 | 0.0703 ± 0.12
CGAUAGCAAUAUUACGAAGC | – | -1.1 ± 0.4
CGAUAGCAAUAUUACGAAUA | -0.837 ± 0.46 | -1.47 ± 0.46
CGAUAGCAAUAUUACGAAUC | -3.74 ± 0.22 | -3.08 ± 0.28
CGAUAGCAAUAUUACGAGCA | -3.83 ± 0.26 | -1.86 ± 0.17
CGAUAGCAAUAUUACGAGCC | -2.23 ± 0.28 | -2.61 ± 0.44
CGAUAGCAAUAUUACGAGGC | -3.66 ± 0.35 | -1.95 ± 0.48
CGAUAGCAAUAUUACGAGUC | -2.74 ± 0.19 | -3.73 ± 0.39
CGAUAGCAAUAUUACGCAAC | -3.83 ± 0.4 | -2.49 ± 0.3
CGAUAGCAAUAUUACGCACU | -1.12 ± 0.14 | 0.174 ± 0.14
CGAUAGCAAUAUUACGCCUU | -2.23 ± 0.17 | -2.24 ± 0.17
CGAUAGCAAUAUUACGCGAA | -2.95 ± 0.21 | -1.92 ± 0.21

Sequence | self-splicing fitness (ln) (30 °C) | self-splicing fitness (ln) (37 °C)
CGAUAGCAAUAUUACGCGAG | -3.16 ± 0.26 | -2.42 ± 0.2
CGAUAGCAAUAUUACGCUAA | – | -0.607 ± 0.26
CGAUAGCAAUAUUACGCUAG | -1.18 ± 0.1 | -1.52 ± 0.19
CGAUAGCAAUAUUACGCUGA | -2.46 ± 0.17 | -1.59 ± 0.16
CGAUAGCAAUAUUACGGAGG | -1.28 ± 0.14 | -1.17 ± 0.15
CGAUAGCAAUAUUACGGAUG | -0.777 ± 0.058 | 0.18 ± 0.07
CGAUAGCAAUAUUACGGCGA | -1.5 ± 0.25 | -1.11 ± 0.16
CGAUAGCAAUAUUACGGGAU | -4.23 ± 0.31 | -2.86 ± 0.27
CGAUAGCAAUAUUACGGGUC | -4.07 ± 0.46 | -2.46 ± 0.3
CGAUAGCAAUAUUACGGUCU | -0.529 ± 0.072 | 0.511 ± 0.097
CGAUAGCAAUAUUACGGUGU | -2.7 ± 0.11 | -1.06 ± 0.095
CGAUAGCAAUAUUACGUACU | -1.12 ± 0.081 | -0.791 ± 0.12
CGAUAGCAAUAUUACGUAGU | -3.93 ± 0.18 | -1.06 ± 0.1
CGAUAGCAAUAUUACGUAUC | -3.4 ± 0.3 | –
CGAUAGCAAUAUUACGUCGG | -1.16 ± 0.11 | -0.171 ± 0.11
CGAUAGCAAUAUUACGUGAU | -3.02 ± 0.1 | -0.808 ± 0.088
CGAUAGCAAUAUUACGUGGG | -2.61 ± 0.17 | -0.763 ± 0.16
CGAUAGCAAUAUUACGUUGU | -3.45 ± 0.15 | -2.61 ± 0.21
CGAUAGCAAUAUUACGUUUC | – | -2.12 ± 0.15
CGCAAGCAAUAUUACGAAAG | -0.888 ± 0.071 | -1.12 ± 0.093
CGCAAGCAAUAUUACGAACG | -1.23 ± 0.1 | -1.03 ± 0.14
CGCAAGCAAUAUUACGAAGU | -4.42 ± 0.36 | -0.741 ± 0.15
CGCAAGCAAUAUUACGACAU | -2.999 ± 0.017 | -1.77 ± 0.034
CGCAAGCAAUAUUACGAGAG | -2.52 ± 0.1 | -2.24 ± 0.15
CGCAAGCAAUAUUACGAGCA | -0.102 ± 0.1 | 0.368 ± 0.14
